The results in this text go back to the supplement of paper PMC10567573.

B1: ZNF207 (parent)
chain: FQPQPVQPQQGYIPPMAQPGLPPV
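Note: lentivirally expressed fusions sorted by FACS into six bins by GFP to DsRed ratio, PSI derived from sequencing read proportions per bin multiplied by bin number.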

The variants in the series derive from B1. Description: protein stability index of a GFP-peptide fusion (GPS, HEK-293T) (PSI 1-6); higher = more stable. To be noted: c terminus: a fixed tail appended.
Take FQPQPVQPQQGYIPPMAQPGCPPV: the protein stability index is 3.64. In the case of FQPQPVQPQQGYIPPMAQPGRPPV, the protein stability index is 3.38. As for FQPQPVQPQQGYIPPMAQPGFPPV, the protein stability index was determined as 2.66. The figure for FQPQPVQPQQGYIPPMAQPGKPPV is 3.48; for FQPQPVQPQQGYIPPMAQPGVPPV it is 2.73. On to FQPQPVQPQIGYIPPMAQPGLPPV, for which the protein stability index came out at 2.12. On to FQPQPVQPQYGYIPPMAQPGLPPV, for which the protein stability index was 2.64. As for FQPQPVQPQNGYIPPMAQPGLPPV, the protein stability index was found to be 3.28. The figure for FQPQPVQPQLGYIPPMAQPGLPPV is 2.16; for FQPQPVQPQFGYIPPMAQPGLPPV it is 2.31; for FQPQPVQPQKGYIPPMAQPGLPPV it is 2.98. Take FQPQPVQPQWGYIPPMAQPGLPPV: the protein stability index worked out at 1.95. Turning to FWPQPVQPQQGYIPPMAQPGLPPV, the protein stability index was 2.54.

With FDPQPVQPQQGYIPPMAQPGLPPV, the protein stability index is 4.03.

Consider FIPQPVQPQQGYIPPMAQPGLPPV, for which the protein stability index was 1.9. Take FRPQPVQPQQGYIPPMAQPGLPPV: the protein stability index was 3.46. Take FGPQPVQPQQGYIPPMAQPGLPPV: the protein stability index was 3.61. With FCPQPVQPQQGYIPPMAQPGLPPV, the protein stability index worked out at 2.18.

As for FNPQPVQPQQGYIPPMAQPGLPPV, the protein stability index stood at 3.66. For the variant FLPQPVQPQQGYIPPMAQPGLPPV, the protein stability index worked out at 3.49. Consider FQPQPDQPQQGYIPPMAQPGLPPV, for which the protein stability index came out at 3.26.

On to FQPQPGQPQQGYIPPMAQPGLPPV, for which the protein stability index turned out to be 3.1. Take FQPQPKQPQQGYIPPMAQPGLPPV: the protein stability index is 3.08. The figure for FQPQPYQPQQGYIPPMAQPGLPPV is 2.75.

As to FQPQPMQPQQGYIPPMAQPGLPPV, the protein stability index came out at 2.71. On to FQPQPNQPQQGYIPPMAQPGLPPV, for which the protein stability index amounted to 2.86. Regarding FQPQPFQPQQGYIPPMAQPGLPPV, the protein stability index worked out at 2.19. The figure for FQPQPSQPQQGYIPPMAQPGLPPV is 3.19; for FQPQPVQDQQGYIPPMAQPGLPPV it is 3.32; for FQPQPVQQQQGYIPPMAQPGLPPV it is 2.95. For FQPQPVQRQQGYIPPMAQPGLPPV the value was 2.61; for FQPQPVQNQQGYIPPMAQPGLPPV, 3.03. Consider FQPQPVQFQQGYIPPMAQPGLPPV, for which the protein stability index is 2.88. FQPQPVVPQQGYIPPMAQPGLPPV: the protein stability index worked out at 3.63. With FQPQPVLPQQGYIPPMAQPGLPPV, the protein stability index stood at 3.04.

In the case of FQPQPVIPQQGYIPPMAQPGLPPV, the protein stability index was determined as 3.29. Consider FQPQPVWPQQGYIPPMAQPGLPPV, for which the protein stability index was 2.25. For the variant FQPQPVSPQQGYIPPMAQPGLPPV, the protein stability index amounted to 3.5.

On to FQPQPVFPQQGYIPPMAQPGLPPV, for which the protein stability index came to 2.72.

On to FQPQPVQPQQGYIPPMAQPGLPPF, for which the protein stability index amounted to 2.35. For FQPQPVQPQQGYIPPMAQPGLPPS, the protein stability index turned out to be 2.93. On to FQPQPVQPQQGYIPPMAQPGLPPE, for which the protein stability index was 3.75. Turning to FQPQPVQPQQGYIPPMAQPGLPPI, the protein stability index is 3.26.

With FQPQPVQPQQGYIPPMAQPGLPPL, the protein stability index worked out at 2.44. For FQPQPVQPQQGYIPPMAQPGLPPH the value was 2.71; for FQPQPVQPQQGYIPPMAQPGLPPY, 2.4. As to FQPQPVQPQQGYIPIMAQPGLPPV, the protein stability index is 2.17. For FQPQPVQPQQGYIPGMAQPGLPPV the value was 3.07; for FQPQPVQPQQGYIPVMAQPGLPPV, 3.23. Consider FQPQPVQPQQGYIPHMAQPGLPPV, for which the protein stability index worked out at 2.74. Consider FQPQPVQPQQGYIPAMAQPGLPPV, for which the protein stability index was 3.13.

As to FQPQPVQPQQGYIPYMAQPGLPPV, the protein stability index came to 2.66.

FQPQPVQPQQGYIPKMAQPGLPPV: the protein stability index was 2.81. As for FQPQPVQPQQGYIPEMAQPGLPPV, the protein stability index worked out at 2.96. In the case of FQPQPVQPQQGYIPPMGQPGLPPV, the protein stability index turned out to be 2.98.

FQPQPVQPQQGYIPPMKQPGLPPV: the protein stability index came out at 3.04. On to FQPQPVQPQQGYIPPMMQPGLPPV, for which the protein stability index worked out at 3.4. FQPQPVQPQQGYIPPMRQPGLPPV: the protein stability index came out at 3.15.

Regarding FQPQPVQPQQGYIPPMCQPGLPPV, the protein stability index turned out to be 3.27.

In the case of FQPQPVQPQQGYIPPMNQPGLPPV, the protein stability index turned out to be 3.59.

Regarding FQPQPVQPQQGYIPPMFQPGLPPV, the protein stability index is 2.5. Regarding FQPQPVQPQQGYIPPMEQPGLPPV, the protein stability index was 3.42. As to FQPQPVQPQQGYIPPMPQPGLPPV, the protein stability index is 3.04. Turning to FQPQPVQPQQDYIPPMAQPGLPPV, the protein stability index is 3.63. For FQPQPVQPQQIYIPPMAQPGLPPV the value was 2.29; for FQPQPVQPQQKYIPPMAQPGLPPV, 2.89.

With FQPQPVQPQQHYIPPMAQPGLPPV, the protein stability index worked out at 3.21. Take FQPQPVQPQQTYIPPMAQPGLPPV: the protein stability index came out at 2.6.

In the case of FQPQPVQPQQCYIPPMAQPGLPPV, the protein stability index came out at 2.18. With FQPQPVQPQQGYIPPMAQPWLPPV, the protein stability index stood at 1.7.

Consider FQPQPVQPQQGYIPPMAQPELPPV, for which the protein stability index amounted to 3.23. Turning to FQPQPVQPQQGYIPPMAQPMLPPV, the protein stability index is 2.75. The figure for FQPQPVQPQQGYIPPMAQPKLPPV is 2.27; for FQPQPVQPQQGYIPPMAQPSLPPV it is 3.24; for FQPQPVQPQQGYIPPMAQPCLPPV it is 2.93. For the variant FQAQPVQPQQGYIPPMAQPGLPPV, the protein stability index was 3.48.

FQLQPVQPQQGYIPPMAQPGLPPV: the protein stability index turned out to be 3.2. The figure for FQEQPVQPQQGYIPPMAQPGLPPV is 3.94; for FQQQPVQPQQGYIPPMAQPGLPPV it is 3.31. In the case of FQVQPVQPQQGYIPPMAQPGLPPV, the protein stability index is 3.52. On to FQCQPVQPQQGYIPPMAQPGLPPV, for which the protein stability index was found to be 3.47. The figure for FQMQPVQPQQGYIPPMAQPGLPPV is 3.38; for FQFQPVQPQQGYIPPMAQPGLPPV it is 2.49; for FQYQPVQPQQGYIPPMAQPGLPPV it is 3.13.

For the variant FQRQPVQPQQGYIPPMAQPGLPPV, the protein stability index amounted to 3.25.

Take FQPQPVQPQQGIIPPMAQPGLPPV: the protein stability index was 3.29. With FQPQPVQPQQGPIPPMAQPGLPPV, the protein stability index was 3.6. Take FQPQPVQPQQGYWPPMAQPGLPPV: the protein stability index worked out at 2.56. With FQPQPVQPQQGYRPPMAQPGLPPV, the protein stability index was found to be 3.16. The figure for FQPQPVQPQQGYLPPMAQPGLPPV is 3.52; for FQPQPVQPQQGYAPPMAQPGLPPV it is 3.8. In the case of FQPQPVQPQQGYKPPMAQPGLPPV, the protein stability index was determined as 2.85. Turning to FQPQPVQPQQGYIPPMAQPGLFPV, the protein stability index was 2.54. FQPQPVQPQQGYIPPMAQPGLRPV: the protein stability index turned out to be 2.88.
